Measured values from publication PMC7954794 (2021).

B1: S. cerevisiae Abp1 (full length; SH3 domain 535-592 mutated) / Hua2 (parent complex)
chain 1: MALEPIDYTTHSREIDAEYLKIVRGSDPDTTWLIISPNAKKEYEPESTGSSFHDFLQLFDETKVQYGLARVSPPGSDVEKIIIIGWCPDSAPLKTRASFAANFAAVANNLFKGYHVQVTARDEDDLDENELLMKISNAAGARYSIQTSSKQQGKASTPPVKKSFTPSKSPAPVSKKEPVKTPSPAPAAKISSRVNDNNDDDDWNEPELKERDFDQAPLKPNQSSYKPIGKIDLQKVIAEEKAKEDPRLVQKPTAAGSKIDPSSDIANLKNESKLKRDSEFNSFLGTTKPPSMTESSLKNDDDKVIKGFRNEKSPAQLWAERKAKQNSGNAETKAEAPKPEVPEDEPEGEPDVKDLKSKFEGLAASEKEEEEMENKFAPPPKKSEPTIISPKPFSKPQEPVKAEEAEQPKTDYKKIGNPLPGMHIEADNEEEPEENDDDWDDDEDEAAQPPLPSRNVASGAPVQKEEPEQEEIAPSLPSRNSIPAPKQEEAPEQAPEEEIEEEAEEAAPQLPSRSSAAPPPPPRRATPEKKPKENPWATAEYDYDAAEDNELTFVENDKIINIEFVDDDWWLGELEKDGSKGLFPSNYVSLGN
chain 2: MQQTKFGKMYLDHDSVVEYSEDEIVEADRITLGYKKRLSMIENQMRHLLEDFSLDVQQIEPILADLQKYYDAFLQLLQKRNKSLQCKRSTHQPVPSPMNSQTSTNAKVNLSGKLMKFQLNSVQKFDEENILRILQNKIEFEHYFQIDKGKKQKVLLLAVYQCLNGPTRLHKVLNIEGIIHNNSIRTILGKQVSSSKWTVFLYDVKLVLLAHRQDVPNLETSKMIVRYGDLFPCALYFKDHTAY

Variants of: B1
Test: DHFR protein-fragment complementation in yeast (Abp1-DHFR F[1,2] x partner-DHFR F[3]), deep mutational scanning, second methotrexate selection vs reference; S. cerevisiae, DHFR-PCA selection in liquid with methotrexate at 30 C, two 72 h selections (the score uses the second); reference = the pre-selection culture

Going from chain 1 MALEPIDYTTHSREIDAEYLKIVRGSDPDTTWLIISPNAKKEYEPESTGSSFHDFLQLFDETKVQYGLARVSPPGSDVEKIIIIGWCPDSAPLKTRASFAANFAAVANNLFKGYHVQVTARDEDDLDENELLMKISNAAGARYSIQTSSKQQGKASTPPVKKSFTPSKSPAPVSKKEPVKTPSPAPAAKISSRVNDNNDDDDWNEPELKERDFDQAPLKPNQSSYKPIGKIDLQKVIAEEKAKEDPRLVQKPTAAGSKIDPSSDIANLKNESKLKRDSEFNSFLGTTKPPSMTESSLKNDDDKVIKGFRNEKSPAQLWAERKAKQNSGNAETKAEAPKPEVPEDEPEGEPDVKDLKSKFEGLAASEKEEEEMENKFAPPPKKSEPTIISPKPFSKPQEPVKAEEAEQPKTDYKKIGNPLPGMHIEADNEEEPEENDDDWDDDEDEAAQPPLPSRNVASGAPVQKEEPEQEEIAPSLPSRNSIPAPKQEEAPEQAPEEEIEEEAEEAAPQLPSRSSAAPPPPPRRATPEKKPKENPWATAEYDYDAAEDNELTFVENDKIINIEFVDDDWWLGCLEKDGSKGLFPSNYVSLGN [chain 1 E573C] to chain 1 MALEPIDYTTHSREIDAEYLKIVRGSDPDTTWLIISPNAKKEYEPESTGSSFHDFLQLFDETKVQYGLARVSPPGSDVEKIIIIGWCPDSAPLKTRASFAANFAAVANNLFKGYHVQVTARDEDDLDENELLMKISNAAGARYSIQTSSKQQGKASTPPVKKSFTPSKSPAPVSKKEPVKTPSPAPAAKISSRVNDNNDDDDWNEPELKERDFDQAPLKPNQSSYKPIGKIDLQKVIAEEKAKEDPRLVQKPTAAGSKIDPSSDIANLKNESKLKRDSEFNSFLGTTKPPSMTESSLKNDDDKVIKGFRNEKSPAQLWAERKAKQNSGNAETKAEAPKPEVPEDEPEGEPDVKDLKSKFEGLAASEKEEEEMENKFAPPPKKSEPTIISPKPFSKPQEPVKAEEAEQPKTDYKKIGNPLPGMHIEADNEEEPEENDDDWDDDEDEAAQPPLPSRNVASGAPVQKEEPEQEEIAPSLPSRNSIPAPKQEEAPEQAPEEEIEEEAEEAAPQLPSRSSAAPPPPPRRATPEKKPKENPWATAEYDYDAAEDNELTFVENDKIINIEFVDDDWWWGELEKDGSKGLFPSNYVSLGN [chain 1 L571W], the screen value falls from 0.625 DMS score: mean over two replicates of log2(f_test/f_ref + 0.5)/ln 2, minus the synonymous-codon median (not a log2 … to -0.19 DMS score: mean over two replicates of log2(f_test/f_ref + 0.5)/ln 2, minus the synonymous-codon median (not a log2 ….

First: chain 1 MALEPIDYTTHSREIDAEYLKIVRGSDPDTTWLIISPNAKKEYEPESTGSSFHDFLQLFDETKVQYGLARVSPPGSDVEKIIIIGWCPDSAPLKTRASFAANFAAVANNLFKGYHVQVTARDEDDLDENELLMKISNAAGARYSIQTSSKQQGKASTPPVKKSFTPSKSPAPVSKKEPVKTPSPAPAAKISSRVNDNNDDDDWNEPELKERDFDQAPLKPNQSSYKPIGKIDLQKVIAEEKAKEDPRLVQKPTAAGSKIDPSSDIANLKNESKLKRDSEFNSFLGTTKPPSMTESSLKNDDDKVIKGFRNEKSPAQLWAERKAKQNSGNAETKAEAPKPEVPEDEPEGEPDVKDLKSKFEGLAASEKEEEEMENKFAPPPKKSEPTIISPKPFSKPQEPVKAEEAEQPKTDYKKIGNPLPGMHIEADNEEEPEENDDDWDDDEDEAAQPPLPSRNVASGAPVQKEEPEQEEIAPSLPSRNSIPAPKQEEAPEQAPEEEIEEEAEEAAPQLPSRSSAAPPPPPRRATPEKKPKENPWATAEYDYDAAEDNELTFVENDKIINIEFVDDDWWLGELEKDGSKGLFPSNVVSLGN [chain 1 Y587V]
Second: chain 1 MALEPIDYTTHSREIDAEYLKIVRGSDPDTTWLIISPNAKKEYEPESTGSSFHDFLQLFDETKVQYGLARVSPPGSDVEKIIIIGWCPDSAPLKTRASFAANFAAVANNLFKGYHVQVTARDEDDLDENELLMKISNAAGARYSIQTSSKQQGKASTPPVKKSFTPSKSPAPVSKKEPVKTPSPAPAAKISSRVNDNNDDDDWNEPELKERDFDQAPLKPNQSSYKPIGKIDLQKVIAEEKAKEDPRLVQKPTAAGSKIDPSSDIANLKNESKLKRDSEFNSFLGTTKPPSMTESSLKNDDDKVIKGFRNEKSPAQLWAERKAKQNSGNAETKAEAPKPEVPEDEPEGEPDVKDLKSKFEGLAASEKEEEEMENKFAPPPKKSEPTIISPKPFSKPQEPVKAEEAEQPKTDYKKIGNPLPGMHIEADNEEEPEENDDDWDDDEDEAAQPPLPSRNVASGAPVQKEEPEQEEIAPSLPSRNSIPAPKQEEAPEQAPEEEIEEEAEEAAPQLPSRSSAAPPPPPRRATPEKKPKENPWATAEYDYDAAEKNELTFVENDKIINIEFVDDDWWLGELEKDGSKGLFPSNYVSLGN [chain 1 D548K]
The screen value of the first is lower: -1.17 DMS score: mean over two replicates of log2(f_test/f_ref + 0.5)/ln 2, minus the synonymous-codon median (not a log2 … for the first, -0.245 DMS score: mean over two replicates of log2(f_test/f_ref + 0.5)/ln 2, minus the synonymous-codon median (not a log2 … for the second.

In the case of chain 1 MALEPIDYTTHSREIDAEYLKIVRGSDPDTTWLIISPNAKKEYEPESTGSSFHDFLQLFDETKVQYGLARVSPPGSDVEKIIIIGWCPDSAPLKTRASFAANFAAVANNLFKGYHVQVTARDEDDLDENELLMKISNAAGARYSIQTSSKQQGKASTPPVKKSFTPSKSPAPVSKKEPVKTPSPAPAAKISSRVNDNNDDDDWNEPELKERDFDQAPLKPNQSSYKPIGKIDLQKVIAEEKAKEDPRLVQKPTAAGSKIDPSSDIANLKNESKLKRDSEFNSFLGTTKPPSMTESSLKNDDDKVIKGFRNEKSPAQLWAERKAKQNSGNAETKAEAPKPEVPEDEPEGEPDVKDLKSKFEGLAASEKEEEEMENKFAPPPKKSEPTIISPKPFSKPQEPVKAEEAEQPKTDYKKIGNPLPGMHIEADNEEEPEENDDDWDDDEDEAAQPPLPSRNVASGAPVQKEEPEQEEIAPSLPSRNSIPAPKQEEAPEQAPEEEIEEEAEEAAPQLPSRSSAAPPPPPRRATPEKKPKENPMATAEYDYDAAEDNELTFVENDKIINIEFVDDDWWLGELEKDGSKGLFPSNYVSLGN [chain 1 W536M], the screen value is reported as -0.26 DMS score: mean over two replicates of log2(f_test/f_ref + 0.5)/ln 2, minus the synonymous-codon median (not a log2 ….
